According to paper PMC7033180, “An endocannabinoid catabolic enzyme FAAH and its paralogs in an early land plant reveal evolutionary and functional relationship with eukaryotic orthologs” (Scientific Reports, 2020):

T1: PpFAAH1 (Physcomitrium patens, UniProt A0A7I4CIU2)
T1 construct: full length cDNA in pDEST15 (GST tag), E. coli BL21(DE3), GST column, tag removal not mentioned; cloning primers translate to N-terminus MAQNKMR and C-terminus FYNILK; catalytic triad K202, S278, S302
T1 sequence (A0A7I4CIU2 1-601): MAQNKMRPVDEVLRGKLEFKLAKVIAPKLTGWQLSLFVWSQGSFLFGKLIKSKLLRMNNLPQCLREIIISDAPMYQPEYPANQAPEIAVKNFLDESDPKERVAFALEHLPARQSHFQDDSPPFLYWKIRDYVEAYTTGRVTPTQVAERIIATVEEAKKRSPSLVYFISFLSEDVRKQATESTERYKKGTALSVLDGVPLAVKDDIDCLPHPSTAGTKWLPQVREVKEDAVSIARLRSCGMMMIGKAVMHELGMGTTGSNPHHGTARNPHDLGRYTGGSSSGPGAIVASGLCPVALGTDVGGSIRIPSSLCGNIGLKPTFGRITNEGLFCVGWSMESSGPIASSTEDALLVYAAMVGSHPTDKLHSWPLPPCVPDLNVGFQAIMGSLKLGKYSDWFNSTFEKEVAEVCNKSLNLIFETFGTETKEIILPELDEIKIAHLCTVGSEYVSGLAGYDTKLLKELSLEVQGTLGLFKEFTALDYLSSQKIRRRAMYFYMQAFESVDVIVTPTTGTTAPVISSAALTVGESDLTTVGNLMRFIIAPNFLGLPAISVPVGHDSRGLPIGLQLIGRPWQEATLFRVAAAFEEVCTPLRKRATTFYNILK

B1: PpFAAH1 (Physcomitrium patens) (protein)
chain: T1 sequence (A0A7I4CIU2 1-601)
notes: full length cDNA in pDEST15 (GST tag), E. coli BL21(DE3), GST column, tag removal not mentioned; cloning primers translate to N-terminus MAQNKMR and C-terminus FYNILK; catalytic triad K202, S278, S302

Columns and labels:
[1] = target: T1, PpFAAH1; assay: radiolabeled amidohydrolase assay, TLC with radiometric scanner, […] min preincubation with inhibitor; assay type: biochemical; conditions: read-out: % inhibition at 10 nM
[2] = substrate: CCCCC/C=C\C/C=C\C/C=C\C/C=C\CCCC(=O)NCCO; assay: radiolabeled amidohydrolase assay, TLC with radiometric scanner; assay type: biochemical, Physcomitrium patens; conditions: pH 8.0, 37 °C, labelled compound ([1-14C])
Experimental: radiolabeled amidohydrolase assay, TLC with radiometric scanner on PpFAAH1 | The kinetic parameters, Km and Vmax for PpFAAH1 with anandamide as a substrate were determined

Molecule | inhibition at 0.01 µM [1] | Km [2] | kcat [2]
NC(=O)c1cccc(-c2cccc(OC(=O)NC3CCCCC3)c2)c1 [URB597, [3-(3-carbamoylphenyl)phenyl] N-cyclohexyl carbamate] | 20% |  | 
B1 |  | 2.3 µM | 1.4 S^−1
